According to paper PMC5296760, “Structural basis of the interaction between Topoisomerase IIIβ and the TDRD3 auxiliary factor” (Scientific Reports, 2017):
Several values for one entry are separate records, joined by “and”; a condition that tells them apart may be missing. Equal entries are not always repeated.

T1: TOP3β TOPO domain (1–612) (human, UniProt O95985 1-612)
T1 construct: human Topoisomerase IIIβ, topoisomerase (TOPO) domain, residues 1–612; also called TOP3β (1–612); catalytic domain of TOP3β; source: baculovirus-infected Sf9 cells, purified (Glutathione Sepharose, GST removed by HRV 3C protease, SEC); not shown: GST, N-terminal, cleaved
T1 sequence (looked up): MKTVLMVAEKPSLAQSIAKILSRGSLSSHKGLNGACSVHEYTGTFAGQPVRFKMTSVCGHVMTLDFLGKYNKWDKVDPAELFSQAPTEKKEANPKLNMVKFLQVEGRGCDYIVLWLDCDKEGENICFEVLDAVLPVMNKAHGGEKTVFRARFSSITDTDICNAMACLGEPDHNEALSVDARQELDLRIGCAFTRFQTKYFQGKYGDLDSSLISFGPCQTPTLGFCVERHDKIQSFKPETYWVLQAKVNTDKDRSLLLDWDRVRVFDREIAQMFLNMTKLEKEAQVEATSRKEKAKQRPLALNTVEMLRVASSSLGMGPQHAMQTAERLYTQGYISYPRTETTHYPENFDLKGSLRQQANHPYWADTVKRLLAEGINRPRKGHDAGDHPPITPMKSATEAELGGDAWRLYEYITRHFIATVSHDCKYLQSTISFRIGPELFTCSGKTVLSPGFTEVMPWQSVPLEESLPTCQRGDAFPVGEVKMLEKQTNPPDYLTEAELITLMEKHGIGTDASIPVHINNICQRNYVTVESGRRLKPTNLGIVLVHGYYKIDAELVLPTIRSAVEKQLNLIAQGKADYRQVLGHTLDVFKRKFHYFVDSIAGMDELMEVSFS

B1: TDRD3 OB-fold domain (48–171) (domain or fragment, human, UniProt Q9H7E2-3 48-171, looked up)
chain: IGKKFLPSDINSGKVEKLEGPCVLQIQKIRNVAAPKDNEESQAAPRMLRLQMTDGHISCTAVEFSYMSKISLNTPPGTKVKLSGIVDIKNGFLLLNDSNTTVLGGEVEHLIEKWELQRSLSKHN
notes: human TDRD3 OB-fold domain, residues 48–171; purification is described only for DUF–OB; also called TDRD3 OB-fold domain alone; source: E. coli Rosetta (DE3) (as told for DUF–OB)
B2: TDRD3 (1–161) of the TOP3β–TDRD3 complex (domain or fragment, human, UniProt Q9H7E2-3 1-161, looked up)
chain: MAQVAGAALSQAGWYLSDEGIEACTSSPDKVNVNDIILIALNTDLRTIGKKFLPSDINSGKVEKLEGPCVLQIQKIRNVAAPKDNEESQAAPRMLRLQMTDGHISCTAVEFSYMSKISLNTPPGTKVKLSGIVDIKNGFLLLNDSNTTVLGGEVEHLIEKW
notes: human TDRD3 DUF1767 and OB-fold domains; made as 1–171, cut by chymotrypsin at Trp161, deposited as 1–161; also called TDRD3 DUF–OB; source: E. coli Rosetta (DE3), purified; TDRD3 (1–171) mixed with TOP3β (1–612), trimmed with chymotrypsin, SEC; not shown: GST, N-terminal, cleaved

target: T1, TOP3β TOPO domain (1–612); assay: SEC; binding analysis using size-exclusion column chromatography (Supplementary Fig. 3a); settings: both partners purified

binding result	Molecule
binds	B1

target: T1, TOP3β TOPO domain (1–612); assay: crystal structure; TOP3β (1–612)–TDRD3 (1–161) complex, 3.6 Å; sitting drop, 20 °C, 50 mM Na-cacodylate pH 6.2, 10 mM MgSO4, 1.7 M Li2SO4; settings: both partners purified

binding result	Molecule
binds	B2

target: GST-TOP3β (1–612), wild type (human) (UniProt O95985); assay: pull-down; GST-TOP3β (1–612) on Glutathione Sepharose FF, 0.2 μM TDRD3 protein (Fig. 3f left); same buffer, 4 °C, 2 hrs; Coomassie, densitometry; settings: not given

percent of wild-type binding	Molecule
> 60%	TDRD3 DUF–OB A80S/A81S (from UniProt Q9H7E2-3 1-161) (domain or fragment)
> 60%	TDRD3 DUF–OB P82S (from UniProt Q9H7E2-3 1-161) (domain or fragment)
50%	TDRD3 DUF–OB P92S (from UniProt Q9H7E2-3 1-161) (domain or fragment)
60%	TDRD3 DUF–OB P^82-GSGSGGS-A^90 (from UniProt Q9H7E2-3 1-161) (domain or fragment)
> 60%	TDRD3 DUF–OB V79S (from UniProt Q9H7E2-3 1-161) (domain or fragment)
30%	TDRD3 DUF–OB V79S/P82S (from UniProt Q9H7E2-3 1-161) (domain or fragment)

target: GST-TOP3β (1–612), wild type (human) (UniProt O95985); assay: pull-down; GST-TOP3β (1–612) on Glutathione Sepharose FF, 1.0 μM TDRD3 or RMI1 protein (Fig. 3f right, 4b); same buffer, 4 °C, 2 hrs; Coomassie, densitometry; settings: not given

percent of wild-type binding	Molecule
80%	TDRD3 DUF–OB A80S/A81Q/A90K/A91P/P92S (from UniProt Q9H7E2-3 1-161) (domain or fragment)
40%	TDRD3 DUF–OB V^79-SSGG-P^92 (from UniProt Q9H7E2-3 1-161) (domain or fragment)

target: GST-TOP3β (1–612), wild type (human) (UniProt O95985); assay: pull-down; GST-TOP3β (1–612) on Glutathione Sepharose FF, 0.5 μM TDRD3 or RMI1 protein (Fig. 3c, 4d, 4e); 20 mM Tris-Cl pH 7.4, 200 mM NaCl, 1 mM MgCl2, 5 mM β-mercaptoethanol, 0.1% Triton X-100, 4 °C, 2 hrs; Coomassie, densitometry; settings: not given

percent of wild-type binding	Molecule
> 70%	TDRD3 DUF–OB F111Y (from UniProt Q9H7E2-3 1-161) (domain or fragment)
> 70%	TDRD3 DUF–OB F139V (from UniProt Q9H7E2-3 1-161) (domain or fragment)
> 70%	TDRD3 DUF–OB R96M (from UniProt Q9H7E2-3 1-161) (domain or fragment)
> 70%	TDRD3 DUF–OB R96M/F111Y (from UniProt Q9H7E2-3 1-161) (domain or fragment)
> 70%	TDRD3 DUF–OB R96M/F139V (from UniProt Q9H7E2-3 1-161) (domain or fragment)
> 70%	TDRD3 DUF–OB R96M/V109M (from UniProt Q9H7E2-3 1-161) (domain or fragment)
35% and 30%	TDRD3 DUF–OB R96M/V109M/F139V (from UniProt Q9H7E2-3 1-161) (domain or fragment)
> 70%	TDRD3 DUF–OB V109M (from UniProt Q9H7E2-3 1-161) (domain or fragment)
> 70%	TDRD3 DUF–OB V109M/F111Y/F139V (from UniProt Q9H7E2-3 1-161) (domain or fragment)
70%	TDRD3-RMI1loop (from UniProt Q9H7E2-3 1-78; Q9H9A7 95-132; Q9H7E2-3 93-161) (domain or fragment)
